Measured values taken from US20250043302A1, “MUTATED HYDROXYPHENYLPYRUVATE DIOXYGENASE POLYPEPTIDE, AND CODING GENE AND USE THEREOF” (BEIJING DABEINONG BIOTECHNOLOGY CO., LTD., priority 2021, published 2025).

Key:
Type in all cases: in vivo
[1] = system: Arabidopsis thaliana T1 plants; assay: Isoxaflutole tolerance of transgenic Arabidopsis thaliana T1 plants (spray, bleached leaf area grade, damage score); details: Table 11; for Classification and statistics of the grade of pesticide damage Grade 0: number of plants at grade 0; for Classification and statistics of the grade of pesticide damage Grade 1: number of plants at grade 1; for Classification and statistics of the grade of pesticide damage Grade 2: number of plants at grade 2; for Classification and statistics of the grade of pesticide damage Grade 3: number of plants at grade 3; for Scores: pesticide damage score;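 on Scores: Weighted damage index from 0 to 100 where higher means more damage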
How it was run: (§1)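 T1 transformants selected by glufosinate; 18-day-old plants, with empty-vector and wild-type controls, sprayed with topramezone (25–200 g ai/ha), isoxaflutole (35–280 g ai/ha) or mesotrione (52.5–420 g ai/ha), water as 0×. Bleached leaf area fraction scored at 7 DAT as grades 0–3.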

[2] = system: Arabidopsis thaliana T1 plants; assay: Mesotrione tolerance of transgenic Arabidopsis thaliana T1 plants (spray, bleached leaf area grade, damage score); parameters: Scores: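 damage score 0-100 computed as Σ(N×S)/(T×M)×100 over grades 0-3 with higher meaning more damage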; details: Table 12; for Classification and statistics of the grade of pesticide damage Grade 0: number of plants at grade 0; for Classification and statistics of the grade of pesticide damage Grade 1: number of plants at grade 1; for Classification and statistics of the grade of pesticide damage Grade 2: number of plants at grade 2; for Classification and statistics of the grade of pesticide damage Grade 3: number of plants at grade 3; for Scores: pesticide damage score
How it was run: as §1

[3] = system: Arabidopsis thaliana T1 plants; assay: Topramezone tolerance of transgenic Arabidopsis thaliana T1 plants (spray, bleached leaf area grade, damage score); details: Table 10; for Classification and statistics of the grade of pesticide damage Grade 0: number of plants at grade 0; for Classification and statistics of the grade of pesticide damage Grade 1: number of plants at grade 1; for Classification and statistics of the grade of pesticide damage Grade 2: number of plants at grade 2; for Classification and statistics of the grade of pesticide damage Grade 3: number of plants at grade 3; for Scores: pesticide damage score
How it was run: as §1

B1: HPPDm-3-02: nucleotide sequence encoding Avena sativa HPPD with A106G+F372A+F383W; vector DBN11784 (nucleic acid)
DNA: ATGCCACCTACTCCAGCTACAGCTACTGGTGCTGCTGCTGCTGCCGTTACTCCTGAGCACGCTGCCAGGTCATTCCCCAGGGTGGTTCGCGTGAACCCCAGATCTGATAGGTTCCCAGTTCTGAGCTTCCACCATGTTGAGCTGTGGTGCGCTGATGCTGCTTCTGCTGCTGGCAGGTTCTCTTTCGCTCTTGGTGCTCCACTCGCTGCTAGATCTGATCTGTCTACAGGAAATAGCGCTCATGCCTCACTCCTGCTTCGCTCAGGTGCTTTGGCCTTCCTCTTCACCGCTCCATATGCTCCCCCACCTCAGGAGGGTGCTACTGCTGCTGCTACAGCCTCCATTCCAAGCTTCTCAGCTGATGCCGCTAGAACCTTCGCTGCTGCTCATGGACTTGCCGTGAGGTCTGTTGGTGTTCGCGTGGCTGATGCTGCTGAGGCTTTCAGAGTTTCCGTTGCCGGCGGAGCTAGGCCAGCTTTCGCTCCTGCTGATTTGGGACATGGTTTCGGCCTGGCTGAGGTTGAGCTTTACGGTGACGTGGTTCTCCGCTTCGTGTCTTACCCAGATGAGACTGACCTGCCTTTCCTTCCCGGCTTCGAGAGAGTTTCCTCTCCTGGTGCCGTGGATTACGGCCTGACAAGGTTCGACCACGTGGTTGGAAACGTTCCCGAGATGGCTCCAGTGATCGATTACATGAAGGGCTTCCTTGGATTCCATGAGTTCGCCGAGTTCACTGCTGAGGACGTGGGAACCACTGAGTCCGGTTTGAACTCTGTGGTTCTCGCCAACAATTCTGAGGCTGTTTTGCTCCCTCTGAATGAGCCTGTGCATGGAACCAAGAGGAGAAGCCAGATTCAAACTTACCTGGAGTACCACGGTGGCCCTGGAGTTCAGCATATCGCCCTTGCTTCTAATGATGTGTTGCGCACACTCAGAGAGATGCGCGCCAGAACCCCCATGGGAGGTTTCGAGTTCATGGCCCCACCACAGGCTAAGTACTACGAGGGCGTTAGAAGGATTGCTGGAGACGTGTTGAGCGAGGAGCAGATCAAGGAGTGCCAAGAGCTGGGTGTTCTTGTGGATAGGGATGACCAGGGCGTTCTGCTTCAAATTGCCACTAAGCCAGTGGGCGACCGCCCTACATTCTGGCTTGAGATGATTCAAAGAATCGGCTGCATGGAGAAGGATGAGGTTGGACAGGAGTACCAAAAGGGCGGATGCGGTGGCTTCGGAAAGGGTAACTTCAGCGAGTTGTTCAAGTCAATCGAGGACTACGAGAAGAGCCTCGAGGTGAAGCAGTCAGTGGTTGCCCAAAAGTCCTGA
modifications: HPPDm-3-02 Nucleotide Sequence
notes: vector DBN11784
[1]; isoxaflutole 140 g ai/ha (2×)
  Resistance evaluation: Highly resistant
  Classification and statistics of the grade of pesticide damage Grade 0: 16
  Classification and statistics of the grade of pesticide damage Grade 1: 0
  Classification and statistics of the grade of pesticide damage Grade 2: 0
  Classification and statistics of the grade of pesticide damage Grade 3: 0
  Scores: 0
[1]; isoxaflutole 280 g ai/ha (4×)
  Resistance evaluation: Highly resistant
  Classification and statistics of the grade of pesticide damage Grade 0: 12
  Classification and statistics of the grade of pesticide damage Grade 1: 4
  Classification and statistics of the grade of pesticide damage Grade 2: 0
  Classification and statistics of the grade of pesticide damage Grade 3: 0
  Scores: 8
[2]; mesotrione 210 g ai/ha (2×)
  Resistance evaluation: Highly resistant
  Classification and statistics of the grade of pesticide damage Grade 0: 16
  Classification and statistics of the grade of pesticide damage Grade 1: 0
  Classification and statistics of the grade of pesticide damage Grade 2: 0
  Classification and statistics of the grade of pesticide damage Grade 3: 0
  Scores: 0
[2]; mesotrione 420 g ai/ha (4×)
  Resistance evaluation: Highly resistant
  Classification and statistics of the grade of pesticide damage Grade 0: 14
  Classification and statistics of the grade of pesticide damage Grade 1: 2
  Classification and statistics of the grade of pesticide damage Grade 2: 0
  Classification and statistics of the grade of pesticide damage Grade 3: 0
  Scores: 4
[3]; topramezone 100 g ai/ha (4×)
  Resistance evaluation: Highly resistant
  Classification and statistics of the grade of pesticide damage Grade 0: 16
  Classification and statistics of the grade of pesticide damage Grade 1: 0
  Classification and statistics of the grade of pesticide damage Grade 2: 0
  Classification and statistics of the grade of pesticide damage Grade 3: 0
  Scores: 0
[3]; topramezone 200 g ai/ha (8×)
  Resistance evaluation: Highly resistant
  Classification and statistics of the grade of pesticide damage Grade 0: 16
  Classification and statistics of the grade of pesticide damage Grade 1: 0
  Classification and statistics of the grade of pesticide damage Grade 2: 0
  Classification and statistics of the grade of pesticide damage Grade 3: 0
  Scores: 0
